Test results from patent publication US20260167721A1 (ABLEXIS, published 2026).

B1: ABL-CD3-56 (antibody, V domains shown)
VH: EVQLVESGGGLVKPGGSLRLSCVASGFTFSRYSMNWVRQAPGKGLEWVSSISSSSRYTYYADSLKGRFIMSRDNAKNSLFLQMNSLRAEDTAVYYCARNLYNALDYWGQGTLVTVSS
VL: FMLTQPHSVSESPGKTVTISCTRSSGSIASNYVQWYQQRPGSSPTTVIYEDNQRPSGVPDRFSGSIDSSSNSASLTISGLQTEDEADYYCQSYDSSNRVFGGGTKLTVL
notes: Chimeric hybridoma mAb: human V, CH1, upper hinge; mouse middle hinge, CH2, CH3
B2: CD3 × CD33-BspAb36 (bispecific antibody)
chain 1: not shown
chain 2: EVQLVQSGAEVKKPGSSVKVSCKASGYTITDSNIHWVRQAPGQSLEWIGYIYPYNGGTDYNQKFKNRATLTVDNPTNTAYMELSSLRSEDTAFYYCVNGNPWLAYWGQGTLVTVSSASTKGPSVFPLAPSSKSTSGGTAALGCLVKDYFPEPVTVSWNSGALTSGVHTFPAVLQSSGLYSLSSVVTVPSSSLGTQTYICNVNHKPSNTKVDKRVEPKSCDKTHTCPPCPAPEFEGGPSVFLFPPKPKDTLMISRTPEVTCVVVDVSHEDPEVKFNWYVDGVEVHNAKTKPREEQYNSTYRVVSVLTVLHQDWLNGKEYKCKVSNKALPASIEKTISKAKGQPREPQVCTLPPSREEMTKNQVSLSCAVKGFYPSDIAVEWESNGQPENNYKTTPPVLDSDGSFFLVSKLTVDKSRWQQGNVFSCSVMHEALHNRFTQKSLSLSPGK
chain 3: DIQLTQSPSTLSASVGDRVTITCRASESLDNYGIRFLTWFQQKPGKAPKLLMYAASNQGSGVPSRFSGSGSGTEFTLTISSLQPDDFATYYCQQTKEVPWSFGQGTKVEVKRTVAAPSVFIFPPSDEQLKSGTASVVCLLNNFYPREAKVQWKVDNALQSGNSQESVTEQDSKDSTYSLSSTLTLSKADYEKHKVYACEVTHQGLSSPVTKSFNRGEC
B3: CD3 × CD33-BspAb45 (bispecific antibody)
chain 1: EVQLVESGGGLVQPGGSLRLSCAASGFTFSRYSMNWVRQAPGKCLEWVSYISSSSSSIYYADSVKGRFTISRDNAKNSLYLQMNSLRDEDTAVYYCARDRRATLDYWGQGTLVTVSSGGGGSGGGGSGGGGSGGGGSNFMLTQPHSVSESPGKTVTISCTRSSGSIASNYVQWYQQRPGSSPTTVIYEDNQRPSGVPDRFSGSIDSSSNSASLTISGLKTEDEADYYCQSYDSSNHVFGCGTKLTVLDKTHTCPPCPAPEFEGGPSVFLFPPKPKDTLMISRTPEVTCVVVDVSHEDPEVKFNWYVDGVEVHNAKTKPREEQYNSTYRVVSVLTVLHQDWLNGKEYKCKVSNKALPASIEKTISKAKGQPREPQVYTLPPCREEMTKNQVSLWCLVKGFYPSDIAVEWESNGQPENNYKTTPPVLDSDGSFFLYSKLTVDKSRWQQGNVFSCSVMHEALHNHYTQKSLSLSPGK
chain 2: EVQLVQSGAEVKKPGSSVKVSCKASGYTITDSNIHWVRQAPGQSLEWIGYIYPYNGGTDYNQKFKNRATLTVDNPTNTAYMELSSLRSEDTAFYYCVNGNPWLAYWGQGTLVTVSSASTKGPSVFPLAPSSKSTSGGTAALGCLVKDYFPEPVTVSWNSGALTSGVHTFPAVLQSSGLYSLSSVVTVPSSSLGTQTYICNVNHKPSNTKVDKRVEPKSCDKTHTCPPCPAPEFEGGPSVFLFPPKPKDTLMISRTPEVTCVVVDVSHEDPEVKFNWYVDGVEVHNAKTKPREEQYNSTYRVVSVLTVLHQDWLNGKEYKCKVSNKALPASIEKTISKAKGQPREPQVCTLPPSREEMTKNQVSLSCAVKGFYPSDIAVEWESNGQPENNYKTTPPVLDSDGSFFLVSKLTVDKSRWQQGNVFSCSVMHEALHNRFTQKSLSLSPGK
chain 3: DIQLTQSPSTLSASVGDRVTITCRASESLDNYGIRFLTWFQQKPGKAPKLLMYAASNQGSGVPSRFSGSGSGTEFTLTISSLQPDDFATYYCQQTKEVPWSFGQGTKVEVKRTVAAPSVFIFPPSDEQLKSGTASVVCLLNNFYPREAKVQWKVDNALQSGNSQESVTEQDSKDSTYSLSSTLTLSKADYEKHKVYACEVTHQGLSSPVTKSFNRGEC
B4: CD3 × CD33-BspAb38 (bispecific antibody)
chain 1: not shown
chain 2: EVQLVQSGAEVKKPGSSVKVSCKASGYTITDSNIHWVRQAPGQSLEWIGYIYPYNGGTDYNQKFKNRATLTVDNPTNTAYMELSSLRSEDTAFYYCVNGNPWLAYWGQGTLVTVSSASTKGPSVFPLAPSSKSTSGGTAALGCLVKDYFPEPVTVSWNSGALTSGVHTFPAVLQSSGLYSLSSVVTVPSSSLGTQTYICNVNHKPSNTKVDKRVEPKSCDKTHTCPPCPAPEFEGGPSVFLFPPKPKDTLMISRTPEVTCVVVDVSHEDPEVKFNWYVDGVEVHNAKTKPREEQYNSTYRVVSVLTVLHQDWLNGKEYKCKVSNKALPASIEKTISKAKGQPREPQVCTLPPSREEMTKNQVSLSCAVKGFYPSDIAVEWESNGQPENNYKTTPPVLDSDGSFFLVSKLTVDKSRWQQGNVFSCSVMHEALHNRFTQKSLSLSPGK
chain 3: DIQLTQSPSTLSASVGDRVTITCRASESLDNYGIRFLTWFQQKPGKAPKLLMYAASNQGSGVPSRFSGSGSGTEFTLTISSLQPDDFATYYCQQTKEVPWSFGQGTKVEVKRTVAAPSVFIFPPSDEQLKSGTASVVCLLNNFYPREAKVQWKVDNALQSGNSQESVTEQDSKDSTYSLSSTLTLSKADYEKHKVYACEVTHQGLSSPVTKSFNRGEC
B5: CD3 × CD33-BspAb39 (bispecific antibody)
chain 1: not shown
chain 2: EVQLVQSGAEVKKPGSSVKVSCKASGYTITDSNIHWVRQAPGQSLEWIGYIYPYNGGTDYNQKFKNRATLTVDNPTNTAYMELSSLRSEDTAFYYCVNGNPWLAYWGQGTLVTVSSASTKGPSVFPLAPSSKSTSGGTAALGCLVKDYFPEPVTVSWNSGALTSGVHTFPAVLQSSGLYSLSSVVTVPSSSLGTQTYICNVNHKPSNTKVDKRVEPKSCDKTHTCPPCPAPEFEGGPSVFLFPPKPKDTLMISRTPEVTCVVVDVSHEDPEVKFNWYVDGVEVHNAKTKPREEQYNSTYRVVSVLTVLHQDWLNGKEYKCKVSNKALPASIEKTISKAKGQPREPQVCTLPPSREEMTKNQVSLSCAVKGFYPSDIAVEWESNGQPENNYKTTPPVLDSDGSFFLVSKLTVDKSRWQQGNVFSCSVMHEALHNRFTQKSLSLSPGK
chain 3: DIQLTQSPSTLSASVGDRVTITCRASESLDNYGIRFLTWFQQKPGKAPKLLMYAASNQGSGVPSRFSGSGSGTEFTLTISSLQPDDFATYYCQQTKEVPWSFGQGTKVEVKRTVAAPSVFIFPPSDEQLKSGTASVVCLLNNFYPREAKVQWKVDNALQSGNSQESVTEQDSKDSTYSLSSTLTLSKADYEKHKVYACEVTHQGLSSPVTKSFNRGEC
B6: CD3 × CD33-BspAb42 (bispecific antibody)
chain 1: EVQLVESGGGLVKPGGSLRLSCAASGFTLSSYSMNWVRQAPGKCLEWVSSISRSGSYIYYADSVKGRFTISRDNAKNSLYLQMNSLRAEDTAVYYCAREKWELLYFDYWGQGTLVTVSSGGGGSGGGGSGGGGSGGGGSNFMLTQPHSVSESPGKTVTISCTRSSGSIASNYVQWYQQRPGSSPTTVIYEDNQRPSGVPDRFSGSIDSSSNSASLTISGLKTEDEADYYCQSYDSSNRVFGCGTKLTVLDKTHTCPPCPAPEFEGGPSVFLFPPKPKDTLMISRTPEVTCVVVDVSHEDPEVKFNWYVDGVEVHNAKTKPREEQYNSTYRVVSVLTVLHQDWLNGKEYKCKVSNKALPASIEKTISKAKGQPREPQVYTLPPCREEMTKNQVSLWCLVKGFYPSDIAVEWESNGQPENNYKTTPPVLDSDGSFFLYSKLTVDKSRWQQGNVFSCSVMHEALHNHYTQKSLSLSPGK
chain 2: EVQLVQSGAEVKKPGSSVKVSCKASGYTITDSNIHWVRQAPGQSLEWIGYIYPYNGGTDYNQKFKNRATLTVDNPTNTAYMELSSLRSEDTAFYYCVNGNPWLAYWGQGTLVTVSSASTKGPSVFPLAPSSKSTSGGTAALGCLVKDYFPEPVTVSWNSGALTSGVHTFPAVLQSSGLYSLSSVVTVPSSSLGTQTYICNVNHKPSNTKVDKRVEPKSCDKTHTCPPCPAPEFEGGPSVFLFPPKPKDTLMISRTPEVTCVVVDVSHEDPEVKFNWYVDGVEVHNAKTKPREEQYNSTYRVVSVLTVLHQDWLNGKEYKCKVSNKALPASIEKTISKAKGQPREPQVCTLPPSREEMTKNQVSLSCAVKGFYPSDIAVEWESNGQPENNYKTTPPVLDSDGSFFLVSKLTVDKSRWQQGNVFSCSVMHEALHNRFTQKSLSLSPGK
chain 3: DIQLTQSPSTLSASVGDRVTITCRASESLDNYGIRFLTWFQQKPGKAPKLLMYAASNQGSGVPSRFSGSGSGTEFTLTISSLQPDDFATYYCQQTKEVPWSFGQGTKVEVKRTVAAPSVFIFPPSDEQLKSGTASVVCLLNNFYPREAKVQWKVDNALQSGNSQESVTEQDSKDSTYSLSSTLTLSKADYEKHKVYACEVTHQGLSSPVTKSFNRGEC
B7: ABL-CD3-54 (antibody, V domains shown)
VH: EVQLVESGGGLVKPGGSLRLSCAASGFTFSSYSMNWVRQAPGKGLEWVSSISRSSRYIFYADSVRGRFTISRDNAKNSLYLQMNSLRAEDTAVYYCAREKRELLFDYWGQGTLVTVSS
VL: NSMLTQPHSVSESPGKTVTISCTRSSGSIASYYVQWYQQRPGSSPTTVIYEDNQRPSGVPDRFSGSIDSSSNSASLTISGLKTEDEADYYCQSFDSSNRVFGGGTKLTVL
notes: as for B1
B8: ABL-CD3-55 (antibody, V domains shown)
VH: EVQLVESGGGLVKPGGSLRLSCAASGFTFSIYSMNWVRQAPGKGLEWVSSISSGSSYIYYADSVKGRFTISRDNAKSSLFLQMNSLRAEDTAVYYCAREKRELLFDYWGQGTLVTVSS
VL: NFMLTQPHSVSESPGKTVTISCTRSSGSIASNYVQWYQQRPGSSPTTVIYEDNQRPSGVPDRFSGSIDRSSNSASLTISGLKTEDEADYYCQSYDSSNRVFGGGTKLTVL
notes: as for B1

Columns and labels:
[1] = target: T1, recombinant human CD3 epsilon/gamma heterodimer (human, UniProt P07766 23-126; P09693 23-116); assay: Octet BLI, mAb on FAB2G sensor, hCD3 E/G 200-50 nM; R^2 0.99
T1 construct: Recombinant protein in solution (200-50 nM) in the Octet assay; also called hCD3 E/G

[2] = target: T2, recombinant human CD3 epsilon/delta heterodimer (human, UniProt P07766 23-126; P04234 22-105); assay: Octet BLI, mAb on FAB2G sensor, hCD3 E/D 200-50 nM; R^2 0.99
T2 construct: Recombinant protein in solution (200-50 nM) in the Octet assay; also called hCD3 E/D; human CD3E/D

[3] = target: recombinant CD3 proteins; assay: Octet (BLI), bispecific antibody against recombinant CD3 proteins

T1 sequence (P07766 23-126, chain 1 of 2): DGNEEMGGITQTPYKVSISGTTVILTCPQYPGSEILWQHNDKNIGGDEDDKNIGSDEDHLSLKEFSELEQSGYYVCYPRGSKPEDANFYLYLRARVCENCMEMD
T1 sequence (P09693 23-116, chain 2 of 2): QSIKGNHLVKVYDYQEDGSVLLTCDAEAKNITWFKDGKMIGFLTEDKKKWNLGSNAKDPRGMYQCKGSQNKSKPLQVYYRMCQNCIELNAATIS
T2 sequence (P07766 23-126, stated change not applied, chain 1 of 2): as the sequence (P07766 23-126, chain 1 of 2) above
T2 sequence (P04234 22-105, stated change not applied, chain 2 of 2): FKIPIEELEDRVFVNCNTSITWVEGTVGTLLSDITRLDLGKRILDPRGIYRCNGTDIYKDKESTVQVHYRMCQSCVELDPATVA

Binder | Kd [1] [nM] | Response [1] | koff [1] [s⁻¹] | kon [1] [M⁻¹ s⁻¹] | Kd [2] [nM] | Response [2] | koff [2] [s⁻¹] | kon [2] [M⁻¹ s⁻¹] | Kd [3] [nM] | Response [3] | koff [3] [s⁻¹] | kon [3] [M⁻¹ s⁻¹]
B1 | 0.94 | 1.3 | 0.000102 | 109000 | 3.96 | 1.24 | 0.000522 | 132000 |  |  |  | 
B2 |  |  |  |  |  |  |  |  | 205 | 0.42 | 0.00334 | 16300
B3 |  |  |  |  |  |  |  |  | 177 | 0.58 | 0.0529 | 299000
B4 |  |  |  |  |  |  |  |  | 81 | 0.28 | 0.0203 | 250000
B5 |  |  |  |  |  |  |  |  | 299 | 0.1 | 0.117 | 391000
B6 |  |  |  |  |  |  |  |  | 133 | 0.51 | 0.0186 | 139000
B7 | 19.3 | 0.87 | 0.00258 | 134000 | 17.6 | 0.87 | 0.00267 | 152000 |  |  |  | 
B8 | 141 | 0.08 | 0.0894 | 636000 | 183 | 0.13 | 0.069 | 376000 |  |  |  | 
